In paper PMC8586334, “Distinct RPA domains promote recruitment and the helicase-nuclease activities of Dna2” (Nature Communications, 2021):

Biological target: Rfa1-AB-Y193D (S. cerevisiae)
Assay: cell-based or functional assay

unwinding of 2.2-kbp-long dsDNA by Dna2-E675A, stimulation by the Rfa1-AB variant, against wild type Rfa1-AB: ~2.5 fold less efficient
B1: S. cerevisiae Dna2-E675A (nuclease-dead) (enzyme, UniProt P38859 1-1522, looked up)
chain: MPGTPQKNKRSASISVSPAKKTEEKEIIQNDSKAILSKQTKRKKKYAFAPINNLNGKNTKVSNASVLKSIAVSQVRNTSRTKDINKAVSKSVKQLPNSQVKPKREMSNLSRHHDFTQDEDGPMEEVIWKYSPLQRDMSDKTTSAAEYSDDYEDVQNPSSTPIVPNRLKTVLSFTNIQVPNADVNQLIQENGNEQVRPKPAEISTRESLRNIDDILDDIEGDLTIKPTITKFSDLPSSPIKAPNVEKKAEVNAEEVDKMDSTGDSNDGDDSLIDILTQKYVEKRKSESQITIQGNTNQKSGAQESCGKNDNTKSRGEIEDHENVDNQAKTGNAFYENEEDSNCQRIKKNEKIEYNSSDEFSDDSLIELLNETQTQVEPNTIEQDLDKVEKMVSDDLRIATDSTLSAYALRAKSGAPRDGVVRLVIVSLRSVELPKIGTQKILECIDGKGEQSSVVVRHPWVYLEFEVGDVIHIIEGKNIENKRLLSDDKNPKTQLANDNLLVLNPDVLFSATSVGSSVGCLRRSILQMQFQDPRGEPSLVMTLGNIVHELLQDSIKYKLSHNKISMEIIIQKLDSLLETYSFSIIICNEEIQYVKELVMKEHAENILYFVNKFVSKSNYGCYTSISGTRRTQPISISNVIDIEENIWSPIYGLKGFLDATVEANVENNKKHIVPLAVKTGKSRSVSYEVQGLIYTLLLNDRYEIPIEFFLLYFTRDKNMTKFPSVLHSIKHILMSRNRMSMNFKHQLQEVFGQAQSRFELPPLLRDSSCDSCFIKESCMVLNKLLEDGTPEESGLVEGEFEILTNHLSQNLANYKEFFTKYNDLITKEESSITCVNKELFLLDGSTRESRSGRCLSGLVVSEVVEHEKTEGAYIYCFSRRRNDNNSQSMLSSQIAANDFVIISDEEGHFCLCQGRVQFINPAKIGISVKRKLLNNRLLDKEKGVTTIQSVVESELEQSSLIATQNLVTYRIDKNDIQQSLSLARFNLLSLFLPAVSPGVDIVDERSKLCRKTKRSDGGNEILRSLLVDNRAPKFRDANDDPVIPYKLSKDTTLNLNQKEAIDKVMRAEDYALILGMPGTGKTTVIAEIIKILVSEGKRVLLTSYTHSAVDNILIKLRNTNISIMRLGMKHKVHPDTQKYVPNYASVKSYNDYLSKINSTSVVATTCLGINDILFTLNEKDFDYVILDEASQISMPVALGPLRYGNRFIMVGDHYQLPPLVKNDAARLGGLEESLFKTFCEKHPESVAELTLQYRMCGDIVTLSNFLIYDNKLKCGNNEVFAQSLELPMPEALSRYRNESANSKQWLEDILEPTRKVVFLNYDNCPDIIEQSEKDNITNHGEAELTLQCVEGMLLSGVPCEDIGVMTLYRAQLRLLKKIFNKNVYDGLEILTADQFQGRDKKCIIISMVRRNSQLNGGALLKELRRVNVAMTRAKSKLIIIGSKSTIGSVPEIKSFVNLLEERNWVYTMCKDALYKYKFPDRSNAIDEARKGCGKRTGAKPITSKSKFVSDKPIIKEILQEYES
